Measured values as given in patent publication US20240116985A1 (published 2024).
Starred links: 1 amine or outer side, 2 acyl side, 3 side chain; linkers in the order of their positions; H or OH if unused. Positions of bridges follow the written chain, without caps; N, C: chain ends. Non-standard residues stand in square brackets, D forms with d. Primed or numbered codes have the meaning given here. *: point of attachment. PyrS2″ = (S)-3-amino-1-((pent-4-en-1-yloxy)carbonyl)pyrrolidine-3-carboxylic acid (stapling residue), C=CCCCOC(=O)N1CC[C@@](N[*:1])(C(=O)[*:2])C1; B5(4) = 2,2-bis(4-pentenyl)glycine = 2-amino-2-(pent-4-en-1-yl)hept-6-enoic acid (stitching residue), C=CCCCC(CCCC=C)(N[*:1])C(=O)[*:2]; PyrS2 = (S)-3-amino-1-((pent-4-en-1-yloxy)carbonyl)pyrrolidine-3-carboxylic acid, C=CCCCOC(=O)N1CC[C@@](N[*:1])(C(=O)[*:2])C1; (EtSSEt)AspE = (S)-2-amino-4-(2-(ethyldisulfaneyl)ethoxy)-4-oxobutanoic acid, CCSSCCOC(=O)C[C@H](N[*:1])C(=O)[*:2]; B5(3) = 2,2-bis(4-pentenyl)glycine (stitching residue), C=CCCCC(CCCC=C)(N[*:1])C(=O)[*:2]; B5 = 2-amino-2-(pent-4-en-1-yl)hept-6-enoic acid, C=CCCCC(CCCC=C)(N[*:1])C(=O)[*:2]; S6 = (S)-2-amino-2-methyloct-7-enoic acid, C=CCCCC[C@](C)(N[*:1])C(=O)[*:2]; S3 = (S)-2-amino-2-methylpent-4-enoic acid, C=CC[C@](C)(N[*:1])C(=O)[*:2]; Phe(2-Cl) = N[C@@H](Cc1ccccc1Cl)C(=O)O; Bta = N[C@@H](Cc1csc2ccccc12)C(=O)O; αAllylPro = C=CC[C@@]1(C(=O)O)CCCN1; tBuAla = CC(C)(C)C[C@H](N)C(=O)O; 3Thi = N[C@@H](Cc1ccsc1)C(=O)O; Leu(ol) = CC(C)C[C@H](N)CO; hSer = N[C@@H](CCO)C(=O)O; Alaol = C[C@@H](CO)N*; Aib = CC(C)(N)C(=O)O

T1: B-cat-Halo (beta-catenin HaloTag NanoBRET construct expressed in HEK293 cells) (UniProt P35222 1-781)
T1 sequence (looked up): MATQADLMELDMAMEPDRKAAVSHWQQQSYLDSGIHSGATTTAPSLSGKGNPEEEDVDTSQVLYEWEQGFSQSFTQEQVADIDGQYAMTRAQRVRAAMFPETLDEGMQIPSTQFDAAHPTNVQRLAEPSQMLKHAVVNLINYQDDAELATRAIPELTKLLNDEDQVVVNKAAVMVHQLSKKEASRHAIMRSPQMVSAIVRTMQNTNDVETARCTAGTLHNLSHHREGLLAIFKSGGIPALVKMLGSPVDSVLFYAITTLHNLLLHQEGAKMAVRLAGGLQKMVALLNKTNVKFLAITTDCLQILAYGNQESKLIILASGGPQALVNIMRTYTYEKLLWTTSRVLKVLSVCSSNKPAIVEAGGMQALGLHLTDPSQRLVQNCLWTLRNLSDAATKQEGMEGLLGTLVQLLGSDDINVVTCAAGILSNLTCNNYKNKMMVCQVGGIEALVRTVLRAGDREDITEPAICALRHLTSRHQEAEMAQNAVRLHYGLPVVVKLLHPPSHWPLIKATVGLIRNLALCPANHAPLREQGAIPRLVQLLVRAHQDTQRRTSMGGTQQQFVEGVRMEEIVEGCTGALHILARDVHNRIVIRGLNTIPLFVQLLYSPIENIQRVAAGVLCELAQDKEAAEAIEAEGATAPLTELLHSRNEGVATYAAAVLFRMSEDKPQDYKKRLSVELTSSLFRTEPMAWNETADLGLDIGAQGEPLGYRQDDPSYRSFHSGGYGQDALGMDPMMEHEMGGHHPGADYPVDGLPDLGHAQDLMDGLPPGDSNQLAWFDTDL

T2: beta-catenin in DLD1 TCF/LEF luciferase reporter cells (UniProt P35222 1-781)
T2 sequence (looked up): T1 sequence (looked up)

T3: B-cat-Halo (beta-catenin HaloTag Nano-BRET construct) (UniProt P35222 1-781)
T3 sequence (looked up): T1 sequence (looked up)

T4: B-cat-Halo (beta-catenin HaloTag construct expressed in HEK293 cells) (UniProt P35222 1-781)
T4 sequence (looked up): T1 sequence (looked up)

T5: beta-catenin in DLD1 TCF/LEF luciferase reporter cells (UniProt P35222 1-781)
T5 sequence (looked up): T1 sequence (looked up)

B1: I-1983 (peptide)
peptide: Ac-[αAllylPro]D[tBuAla][S3]DDAAFL[Aib][3Thi][Bta]Q-NH2
modifications: staple 1-4; not fully specified; printed as Ac-PL3-Asp-Npg-S3-Asp-Asp-Ala-Ala-Phe-Leu-Aib-3Thi-BztA-Gln-NH2; also: staple -CH=CH- reduced to -CH2-CH2-

These binders were tested against T1, B-cat-Halo (beta-catenin HaloTag …) (assay: cell-based or functional assay).

First: Ac-[αAllylPro]D[tBuAla][B5(4)]DDAAFN[PyrS2″][Phe(2-Cl)][Bta][Leu(ol)] (staple 1-4, 4-11) [I-1080]
Second: Ac-[αAllylPro]D[tBuAla][B5(4)]DDAAFN[PyrS2″][Phe(2-Cl)][Bta]Q-NHEt (staple 1-4, 4-11) [I-1079]
The “NanoBRET Abs IC50” value of the first is higher: greater than 20 µM for the first, 19.7 µM for the second.

Ac-[αAllylPro]D[tBuAla][B5(3)]DDAAFN[PyrS2″][Phe(2-Cl)][Bta]-Alaol (staple 1-4, 4-11) [I-1081] was tested, and the “NanoBRET Abs IC50” value was 16.7 µM.

Each binder was assayed against T2, beta-catenin in DLD1 TCF/LEF luciferase … (assay: cell-based or functional assay).

Ac-[αAllylPro]D[tBuAla][B5(4)]DDAAFN[PyrS2″][Phe(2-Cl)][Bta][Leu(ol)] (staple 1-4, 4-11) [I-1080] and Ac-[αAllylPro]D[tBuAla][B5(4)]DDAAFN[PyrS2″][Phe(2-Cl)][Bta]Q-NHEt (staple 1-4, 4-11) [I-1079] are within 1.5-fold of each other in “DLD1 reporter assay Abs IC50” value: 17.2 µM for the first, 14.5 µM for the second.

For Ac-[αAllylPro]D[tBuAla][B5(3)]DDAAFN[PyrS2″][Phe(2-Cl)][Bta]-Alaol (staple 1-4, 4-11) [I-1081], the “DLD1 reporter assay Abs IC50” value was 10 µM.

Each binder was assayed against T3, B-cat-Halo (beta-catenin HaloTag …) (assay: cell-based or functional assay).

Ac-[αAllylPro]D[tBuAla][S3]DDAAFL[Aib][3Thi][Bta]Q-NH2 (staple 1-4) [I-1980] and Ac-[αAllylPro]D[tBuAla][S6]DDAAFL[Aib][3Thi][Bta]Q-NH2 (staple 1-4) [I-1978] cannot be ordered by “NanoBRET Abs IC50” value: greater than 20 µM for the first, greater than 20 µM for the second.

Ac-[αAllylPro]D[tBuAla][B5(4)]D[(EtSSEt)AspE]AAFL[PyrS2″][3Thi][Bta]Q-NH2 (staple 1-4, 4-11) [I-1965] and Ac-[αAllylPro][(EtSSEt)AspE][tBuAla][B5(4)]DDAAFL[PyrS2″][3Thi][Bta]Q-NH2 (staple 1-4, 4-11) [I-1963] are within 1.5-fold of each other in “NanoBRET Abs IC50” value: 25.2 µM for the first, 25.6 µM for the second.

B1 was tested, and the “NanoBRET Abs IC50” value was greater than 20 µM.

What follows are binders tested against T4, B-cat-Halo (beta-catenin HaloTag …) (assay: cell-based or functional assay).

Compared with Ac-[αAllylPro]D[tBuAla][B5]DDAAFL[PyrS2][3Thi][Bta]Q-NH2 (staple 1-4, 4-11) [I-801], Ac-[αAllylPro]D[tBuAla][B5]DDAAFN[PyrS2″][3Thi][Bta]S-NH2 (staple 1-4, 4-11) [I-815] is 2.7-fold higher in “NanoBRET Abs IC50” value: 5.8 µM for the first, 15.4 µM for the second.

Going from Ac-[αAllylPro]D[tBuAla][B5(3)]DDAAFT[PyrS2″][3Thi][Bta]Q-NH2 (staple 1-4, 4-11) [I-809] to Ac-[αAllylPro]D[tBuAla][B5(3)]DDAAF[hSer][PyrS2″][3Thi][Bta]Q-NH2 (staple 1-4, 4-11) [I-803], the “NanoBRET Abs IC50” value rises from 6.1 µM to 9.6 µM (1.6-fold).

The binders below were run against T5, beta-catenin in DLD1 TCF/LEF luciferase … (assay: cell-based or functional assay).

Going from Ac-[αAllylPro]D[tBuAla][B5]DDAAFL[PyrS2][3Thi][Bta]Q-NH2 (staple 1-4, 4-11) [I-801] to Ac-[αAllylPro]D[tBuAla][B5]DDAAFN[PyrS2″][3Thi][Bta]S-NH2 (staple 1-4, 4-11) [I-815], the “DLD1 4% Abs IC50” value rises from 4.3 µM to 10.3 µM (2.4-fold).

Ac-[αAllylPro]D[tBuAla][B5(3)]DDAAFT[PyrS2″][3Thi][Bta]Q-NH2 (staple 1-4, 4-11) [I-809] and Ac-[αAllylPro]D[tBuAla][B5(3)]DDAAF[hSer][PyrS2″][3Thi][Bta]Q-NH2 (staple 1-4, 4-11) [I-803] are within 1.5-fold of each other in “DLD1 4% Abs IC50” value: 11.3 µM for the first, 9 µM for the second.
